# Literature values, collected in US20090317412A1, “Induction of an immune response against streptococcus pneumoniae polyaccharides” (priority 2004, published 2009).
# Biological target: T1, murine I-A^b molecules (Mus musculus, UniProt P14434+P14483)
# T1 sequence (P14434 24-256): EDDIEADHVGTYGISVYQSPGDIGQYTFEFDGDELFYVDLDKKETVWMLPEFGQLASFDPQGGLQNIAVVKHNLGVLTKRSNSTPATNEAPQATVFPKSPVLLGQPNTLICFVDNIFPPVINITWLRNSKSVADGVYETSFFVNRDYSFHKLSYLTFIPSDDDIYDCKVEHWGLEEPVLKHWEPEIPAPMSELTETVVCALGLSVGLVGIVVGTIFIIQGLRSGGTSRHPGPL
# T1 sequence (P14483 28-265): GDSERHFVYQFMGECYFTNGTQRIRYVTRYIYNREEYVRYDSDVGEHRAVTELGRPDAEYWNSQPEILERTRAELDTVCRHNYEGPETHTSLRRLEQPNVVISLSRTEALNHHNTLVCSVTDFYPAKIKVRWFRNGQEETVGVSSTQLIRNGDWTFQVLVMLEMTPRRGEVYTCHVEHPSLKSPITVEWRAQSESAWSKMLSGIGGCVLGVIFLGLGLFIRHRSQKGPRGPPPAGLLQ
sequence,measurement,value
AKXVAAWTLKAAA [pan DR binding peptide],binding to murine I-A^b molecules,binds
